The supplement of paper PMC7125110
± gives the standard error. For some of these results: Variants at the floor of the assay were thinned out.

B1: glmS ribozyme (parent)
chain: AUAAAAGCGCCAGAACUACAGAAAUGUAGUUGACGAGGAGGAGGUUUAUCGAAUUUUCGGCGGAUGCCUCCAAA

What was measured:
Conditions in all cases: with glucosamine-6-phosphate
[1] = variants of: B1; test: kcat; higher = faster cleavage; RNA array
Summary of the method: (§1)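 Barcoded ribozyme variants on sequenced MiSeq chips were transcribed in situ by E. coli RNA polymerase and followed at 37 °C through a hybridised Cy3 probe. Glucosamine-6-phosphate at 40 μM to 10 mM in HEPES/KCl/Mg(OAc)2 buffer was flowed in, and tiles were imaged over ~14 h. Signals were normalised to baseline and to non-cleaving reference variants, and per-tile medians were fit to one- or two-exponential decays to give kobs. Weighted Michaelis–Menten fits across concentrations gave kcat and KM.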

[2] = variants of: B1; test: KM; higher = weaker cofactor use; RNA array
Summary of the method: as §1

[3] = variants of: B1; test: self-cleavage kobs at 160 uM GlcN6P; higher = faster cleavage; RNA array
Summary of the method: as §1

[4] = variants of: B1; test: self-cleavage kobs at 640 uM GlcN6P; higher = faster cleavage; RNA array
Summary of the method: as §1

[5] = variants of: B1; test: self-cleavage kobs at 2500 uM GlcN6P; higher = faster cleavage; RNA array
Summary of the method: as §1

[6] = variants of: B1; test: self-cleavage kobs at 10000 uM GlcN6P; higher = faster cleavage; RNA array
Summary of the method: as §1

[7] = variants of: B1; test: self-cleavage kobs at 40 uM GlcN6P; higher = faster cleavage; RNA array
Summary of the method: as §1

Variant	kcat [1] [s⁻¹]	KM [2] [µM]	self-cleavage kobs at 160 uM GlcN6P [3] [s⁻¹]	self-cleavage kobs at 640 uM GlcN6P [4] [s⁻¹]	self-cleavage kobs at 2500 uM GlcN6P [5] [s⁻¹]	self-cleavage kobs at 10000 uM GlcN6P [6] [s⁻¹]	self-cleavage kobs at 40 uM GlcN6P [7] [s⁻¹]
G51U C67A C71U	2.47e-05 ± 3.5e-06						
A53C C71A	0.000797 ± 0.00016	1610 ± 520	6.89e-05 ± 1.5e-05	0.000254 ± 0.00011	0.000705 ± 0.00017	0.000613 ± 0.00013	
A53C C71U	0.00685 ± 0.001	1760 ± 360	0.000539 ± 0.0001	0.00167 ± 0.00036	0.00474 ± 0.00067	0.00509 ± 0.0011	0.000156 ± 2.5e-05
A52G G66U	0.00018 ± 2.4e-05	4030 ± 1300		2.89e-05 ± 1.1e-05	6.2e-05 ± 1.6e-05	0.00013 ± 1.5e-05	
A52G C67A	0.000584 ± 5.9e-05	1300 ± 300	7.46e-05 ± 2e-05	0.000199 ± 3.2e-05	0.000301 ± 8.4e-05	0.000533 ± 5.6e-05	
C50U C68U	2.09e-05 ± 3.8e-06				3e-05 ± 1.2e-05		
G51U U69A	5.12e-05 ± 2.4e-05			7.72e-05 ± 1.7e-05			
G51U U69G	4.26e-05 ± 1.5e-05		5.17e-05 ± 1.2e-05	5.57e-05 ± 1.3e-05	7e-05 ± 1e-05	1.72e-05 ± 8.1e-06	
